Patent US12139534B2, “Methods and compositions for decreasing soluble immune receptor CD28” (BIOND BIOLOGICS LTD., priority 2018, dated 2024)

How the values were obtained:
human PBMCs = assay: Soluble CD28 generation by SEB or CMV stimulated PBMCs, human CD28 ELISA; type: cell-based; conditions: for sCD28 levels detected with antibodies of the invention: stimulated cells with protease inhibitors, sandwich ELISA; for amount of sCD28 in culture: PBMCs stimulated with SEB or CMV, TAPI-1 and GM6001 protease inhibitor cocktail
Experimental: (§1) ELISA—Commercial ELISA kits were used for quantitation of the amount of human interferon-gamma (Biolegend, Cat. No. 430103), human interleukin 2 (Biolegend, Cat. No. 431802), human interleukin 6 (Biolegend, Cat. No. 430502), human interleukin 10 (Biolegend, Cat. No. 430603), human […] beta 1 (Biolegend, Cat. No. 436708), human interleukin beta 1 (Biolegend, Cat. No. 437004) and human CD28 (R&D system, Cat. No. DY342). Cell Proliferation and viability (MTT assay) was conducted according to manufacturer instructions (Roche, cat #11465007001). Kynurenine (IDO activity) ELISA kit was conducted according to manufacturer instructions (ImmuSmo Cat #BA E-2200).
(§2) Protease Inhibitors—Protease inhibitors were added at the indicated concentrations at the start of each experiment. In week long assays another portion of the inhibitors was added after 3 days at the final concentration. […] Where mentioned the protease cocktail was composed with a mixture of TAPI-1 and GM6001 at equimolar ratio.
SEB or CMV activation of PBMCs for the generation of soluble CD28—0.3×10^6 PBMCs were stimulated with 0.5 ng/mL SEB (Sigma, Cat. No. S4881) for 5-7 days at 37° C. with/without the indicated concentration of various protease inhibitors in 48 well plate. Alternatively, 0.1×10^6 PBMCs were stimulated with 0.5 ng/mL SEB in 96 well plate format assay. For CMV stimulation 0.5×10^6 PBMCs were stimulated with 0.5 μg/mL CMV peptivator (Milteny Biotec, Cat. No. 130-093-435) for 2-5 days at 37° C. with/without the indicated concentration of various protease inhibitors in a 96 well plate. For continuous shedding experiments PBMC were stimulated with SEB or CMV in 24 well plate for 24 hr, cells were taken and washed three times with RPMI without stimulant and plated again in a 96 well plate. Samples were taken at indicated times and put under freezing conditions until examination for soluble CD28.

Jurkat T cell line = assay: Soluble CD28 generation by PHA activated Jurkat T cell line, CD28 ELISA; type: cell-based, human; conditions: PHA 1-4 μg/mL, TAPI-1 and GM6001 cocktail 0.5-2 μM
Experimental: as §1, §2
(§3) PHA activation of CD4 T cells or Jurkat T cell line for the generation of soluble CD28—1×10^5 Jurkat cells or CD4 T cells were incubated with the indicated concentration of Phytohemagglutinin (Sigma, Cat. No. L8902) and various protease inhibitors for additional 5 (Jurkat) or 7 days (CD4 T cells).

human CD4 T cells = assay: Soluble CD28 generation by PHA activated CD4 T cells, CD28 ELISA; type: cell-based; conditions: PHA 1-4 μg/mL, TAPI-1 and GM6001 cocktail 0.5-2 μM
Experimental: as §1, §2, §3

[1] = system: isolated CD3 human T cells; assay: CD3 T cells stimulation with anti-CD3 OKT3, IFN gamma secretion; type: cell-based; conditions: for IFNγ secretion (agonism): anti-CD3 stimulation, CD28.2 2.0 μg/mL, antibodies 0.1-10 μg/mL
Experimental: T cells stimulation with OKT3—0.1×10^6 isolated CD3 T cells (from healthy donors) were stimulated with indicated amount of anti-CD3 clone OKT3 for 48-72 hr at 37° C. When stated recombinant human CD80-Fc (2 μg/mL, R&D system) was added in soluble form. Antibodies to CD28 or controls were added at the indicated concentration in soluble form.
CD80 is one of the two main ligands for mCD28 along with CD86. The extracellular domain of CD80 fused to an Fc moiety has been used as an immune stimulatory molecule and is under investigation as a cancer therapy. In order to examine the effect of sCD28 on CD80-Fc efficacy, isolated CD3 human T cells were stimulated with plate bound anti-CD3 antibody (OKT3, 2 μg/mL) in the presence of 2 μg/mL soluble recombinant human CD80-Fc.

mCD28 [2] = target: T1, mCD28 (Homo sapiens, UniProt P10747); assay: FACS binding to mCD28 on naïve CD3 T cells; conditions: antibody 20 μg/mL
T1 construct: expressed in transfected cells
Experimental: Flow Cytometry—Generally, cells were kept on ice during all steps. Prior to staining, 5×10^5 cells were blocked with 50 μg/mL human IgG (Sigma, Cat. No. 14506) in FACS buffer (PBS with 0.1% BSA) for 15 min. Antibodies were used at concentrations recommended by the manufacturer and incubated for 30 min. in the dark. Incubations were done in a volume of 100 μL in 96-well U bottom plates. Cells were washed twice with 200 μL of FACS buffer and transferred to FACS tubes in 150 μL of FACS buffer for analysis. Cells were analyzed on a Gallios Flow Cytometer (Beckman Coulter) using the Kaluza for Gallios Flow Cytometry Acquisition Software.
Lastly, the ability of antibodies #1-3 to bind to mCD28 at all was examined. While it is not essential that a sCD28 antibody not bind mCD28 it is advantageous. Such an antibody could be used for specific detection of the soluble protein, and if used therapeutically would have no effect on the membranal form. Naïve isolated CD3 T cells were evaluated by FACs to assay mCD28 binding. Cells were incubated with antibodies #1-3 (20 μg/mL dark grey histograms) or isotype controls (mIgG, 20 μg/mL, light grey histograms). Binding detection was performed with Alexa Fluor 647-conjugated goat anti mouse secondary antibody.

mCD28 [3] = target: T1, mCD28; assay: CD86 blocking FACS on HEK293 cells stably transfected with human CD28; type: binding; conditions: CD86-Fc 5 μg/mL; antibody 20 μg/mL
Experimental: CD86 blocking FACS—0.5×10^6 HEK293 cells stably transfected with human CD28 were incubated with 5 μg/mL CD86-Fc (R&D systems, Cat. No. 141-B2) without or with anti CD28 antibodies (20 μg/mL) for 30 min in room temperature. Cells were washed and taken for secondary binding using anti-human heavy and light chains antibody conjugated to fluorophore at 1:5000 dilution for 20 min on ice.

recombinant human CD28 = target: T2, recombinant human CD28 (Homo sapiens, UniProt P10747); assay: Direct CD28 ELISA on recombinant human CD28; type: binding
T2 construct: recombinant human CD28 lacking the transmembrane and cytoplasmic domains; purchased R&D 342-CD

sCD28 = assay: Simulated sweeping of soluble CD28 from plasma with antibody coated magnetic beads; parameters: species or system human; conditions: for sCD28 levels in plasma after beads: about 1.5 μg on beads
Experimental: Simulated sweeping of soluble CD28 from plasma of cancer patient. Antibodies or recombinant proteins were coated on tosyl-activated magnetic beads (Invitrogen, Cat. No. DY-14203) as described by manufacturer protocol. […] The mixture was incubated in a thermomixer for 2 hr, 1000 RPM at 37° C., followed by removal of the beads using a DynaMag magnet (Invitrogen, Cat. No. 12321D) and the samples were examined using CD28 specific ELISA.
Varying amounts (0.125-2 μg) of antibodies #1 and #2 were loaded onto tosyl-activated magnetic beads according to the manufacturer's protocol (Thermo Fisher Scientific). The loaded beads were then added to plasma samples from a cancer patient, and the mixture was incubated in a thermomixer at 37° C. for 2 hours at 1000 RPM. The beads were isolated and removed from the plasma with a magnet and the amount of sCD28 remaining in the serum was measured by ELISA.
Antibody #1 was further tested on various cancer samples (melanoma, colorectal and ovarian) and compared to three B7 molecules which are known ligands of CD28. About 1.5 μg of antibody #1, CD80, CD86 and ICOSL were each loaded onto tosyl-activated magnetic beads and the beads were mixed with plasma as before. A colorectal sample (FIG. 16C), as well as two melanoma samples (FIG. 16D-E), an ovarian sample (FIG. 16F) and a sample from a healthy donor (FIG. 16G) were all tested.

Molecule	sCD28 levels detected with antibodies of the invention (human PBMCs)	amount of sCD28 in supernatant (Jurkat T cell line)	amount of sCD28 in supernatant (human CD4 T cells)	amount of sCD28 in culture (human PBMCs)	binding to mCD28 on the cell surface (mCD28 [2])	CD86 binding to mCD28 (mCD28 [3])	IFNγ secretion (agonism) [1]	further results
CNC(=O)[C@@H](NC(=O)[C@H](CCCc1ccccc1)[C@H](C)N(O)C=O)C(C)(C)C [GI254023X]	Lower levels of sCD28							sCD28 release from activated immune cells (human PBMCs; PBMCs, SEB 1 ng/mL, inhibitor 0.01-1 μM): almost complete inhibition of sCD28 release
CNC(=O)[C@H](Cc1c[nH]c2ccccc12)NC(=O)[C@@H](CC(=O)NO)CC(C)C [GM6001]		diminished the amount of sCD28	diminished the amount of sCD28	diminish the amount of sCD28 in a dose dependent manner				
CC(C)C[C@H](CC(=O)NO)C(=O)N[C@@H](Cc1ccc2ccccc2c1)C(=O)N[C@@H](C)C(=O)NCCN [TAPI-1]	Lower levels of sCD28	diminished the amount of sCD28	diminished the amount of sCD28	diminish the amount of sCD28 in a dose dependent manner				
CD80-Fc: extracellular domain of CD80 fused to an Fc moiety (protein, left off: a dimerising Fc or GST, extracellular domain of CD80 fused to an Fc moiety) VIHVTKEVKEVATLSCGHNVSVEELAQTRIYWQKEKKMVLTMMSGDMNIWPEYKNRTIFDITNNLSIVILALRPSDEGTYECVVLKYEKDAFKREHLAEVTLSVKADFPTPSISDFEIPTSNIRRIICSTSGGFPEPHLSWLENGEELNAINTTVSQDPETELYAVSSKLDFNMTTNHSFMCLIKYGHLRVNQTFNWNTTKQEHFPDN								IFN gamma secretion ([1]; plate bound OKT3 2 μg/mL, CD80-Fc 2 μg/mL): increased IFN gamma secretion
antibody #1: sCD28 binding (sweeping) antibody; heavy chain SEQ ID NO: 42, light chain SEQ ID NO: 44 (antibody) heavy: QIQLVQSGPELKKPGETVKISCKASGYTLTNYGMNWVKQAPGKGLKWMGWINTYTGKPTYVDDFKGRFAFSLETSASTAYLQINNLKNEDTATYFCARGDANQQFAYWGQGTLVTVSAAKTTPPSVYPLAPGSAAQTNSMVTLGCLVKGYFPEPVTVTWNSGSLSSGVHTFPAVLQSDLYTLSSSVTVPSSTWPSETVTCNVAHPASSTKVDKKIVPRDCGCKPCICTVPEVSSVFIFPPKPKDVLTITLTPKVTCVVVDISKDDPEVQFSWFVDDVEVHTAQTQPREEQFNSTFRSVSELPIMHQDWLNGKEFKCRVNSAAFPAPIEKTISKTKGRPKAPQVYTIPPPKEQMAKDKVSLTCMITDFFPEDITVEWQWNGQPAENYKNTQPIMDTDGSYFVYSKLNVQKSNWEAGNTFTCSVLHEGLHNHHTEKSLSHSPGK light: DIKMTQSPSSMYASLGERVTITCKASQDINSYLSWFQQKPGKSPKTLIYRANRLVDGVPSRFSGSGSGQDYSLTISSLEYDDMGIYYCLQYDEFPPTFGAGTKLELKRADAAPTVSIFPPSSEQLTSGGASVVCFLNNFYPKDINVKWKIDGSERQNGVLNSWTDQDSKDSTYSMSSTLTLTKDEYERHNSYTCEATHKTSTSPIVKSFNRNEC					bound mCD28	none of antibody #1 (FIG. 15B), antibody #2 (FIG. 15C), or antibody #3 (FIG. 15D) blocked binding of CD86 to mCD28	no effect on IFN secretion	detection compared to CD28.2 (recombinant human CD28): nearly ten-times greater detection; binding to sCD28 (recombinant human CD28; immobilized recombinant human sCD28): much stronger binding to sCD28; comparison with CD80, CD86 and ICOSL (sCD28; about 1.5 μg each on beads): superior to the other three molecules tested; sCD28 levels in plasma after beads (sCD28; all cases): at or below the levels observed in the healthy sample; sCD28 levels in plasma after beads (sCD28; all samples except one melanoma sample): nearly undetectable levels; removal of sCD28 from plasma (sCD28; cancer patient plasma, 0.125-2 μg antibody on beads, 37° C. 2 hours): capable of binding and removing sCD28 from plasma; reduction of sCD28 (sCD28; one of the melanoma samples (FIG. 16D)): greater than 50%
antibody #3: sCD28 binding (sweeping) antibody; heavy chain SEQ ID NO: 50, light chain SEQ ID NO: 52 (antibody) heavy: EVQLQQFGAELVKPGASVKISCKASGYTFTDYNMDWVKQSHGKSLEWIGDINPNYDSTAYNQKFMGKATLTVDKSSNTAYMELRSLTSEDTAVYYCARSSPYYDSNHFDYWGQGTSLTVSSAKTTPPSVYPLAPGSAAQTNSMVTLGCLVKGYFPEPVTVTWNSGSLSSGVHTFPAVLQSDLYTLSSSVTVPSSTWPSETVTCNVAHPASSTKVDKKIVPRDCGCKPCICTVPEVSSVFIFPPKPKDVLTITLTPKVTCVVVDISKDDPEVQFSWFVDDVEVHTAQTQPREEQFNSTFRSVSELPIMHQDWLNGKEFKCRVNSAAFPAPIEKTISKTKGRPKAPQVYTIPPPKEQMAKDKVSLTCMITDFFPEDITVEWQWNGQPAENYKNTQPIMDTDGSYFVYSKLNVQKSNWEAGNTFTCSVLHEGLHNHHTEKSLSHSPGK light: QIVLTQSPAIMSASPGEKVTMTCSARSSINYMHWFQQKPGTSPKRWIYDTSKLASGVPARFSGSGSGTSYSLTISNMEAEDAATYYCHQRNSYPFTFGSGTKLEIKRADAAPTVSIFPPSSEQLTSGGASVVCFLNNFYPKDINVKWKIDGSERQNGVLNSWTDQDSKDSTYSMSSTLTLTKDEYERHNSYTCEATHKTSTSPIVKSFNRNEC					do not bind CD28 on the cell surface	none of antibody #1 (FIG. 15B), antibody #2 (FIG. 15C), or antibody #3 (FIG. 15D) blocked binding of CD86 to mCD28	no effect on IFN secretion	
